{"source": "patent US20170189510A1", "data": [{"target": "HLA-A*24 (human)", "assay": "UV-ligand exchange, anti-b2m ELISA", "units": {"peptide exchange yield": "%"}, "values": [{"binder": "QYLGQIQHI", "note": "[peptide SEQ ID No 268 …]", "peptide exchange yield": "50 to 75"}, {"binder": "VYWDSAGAAHF", "note": "[peptide SEQ ID No 202 …]", "peptide exchange yield": "> 75"}, {"binder": "YYKSTSSAF", "note": "[peptide SEQ ID No 218 …]", "peptide exchange yield": "50 to 75"}, {"binder": "VYQGHTALL", "note": "[peptide SEQ ID No 277 …]", "peptide exchange yield": "> 75"}, {"binder": "YYGPSLFLL", "note": "[peptide SEQ ID No 200 …]", "peptide exchange yield": "50 to 75"}, {"binder": "TFSVSSHLF", "note": "[peptide SEQ ID No 222 …]", "peptide exchange yield": "50 to 75"}, {"binder": "PYRLIFEKF", "note": "[peptide SEQ ID No 281 …]", "peptide exchange yield": "20 to 49"}, {"binder": "RYAEEVGIF", "note": "[peptide SEQ ID No 199 …]", "peptide exchange yield": "50 to 75"}, {"binder": "YFIDSTNLKTHF", "note": "[peptide SEQ ID No 269 …]", "peptide exchange yield": "50 to 75"}, {"binder": "LYITEPKTI", "note": "[peptide SEQ ID No 287 …]", "peptide exchange yield": "50 to 75"}, {"binder": "TYELRYFQI", "note": "[peptide SEQ ID No 204 …]", "peptide exchange yield": "> 75"}, {"binder": "NYYEVHKELF", "note": "[peptide SEQ ID No 270 …]", "peptide exchange yield": "50 to 75"}, {"binder": "IYATEAHVF", "note": "[peptide SEQ ID No 201 …]", "peptide exchange yield": "50 to 75"}, {"binder": "HYPPVQVLF", "note": "[peptide SEQ ID No 285 …]", "peptide exchange yield": "50 to 75"}, {"binder": "AYVVFVSTL", "note": "[peptide SEQ ID No 207 …]", "peptide exchange yield": "20 to 49"}, {"binder": "TYKDEGNDYF", "note": "[peptide SEQ ID No 209 …]", "peptide exchange yield": "50 to 75"}]}]}
